Results taken from the supplement of paper PMC9732359.
± gives the uncertainty stated by the source.

Test: protein stability index of a GFP-peptide fusion (yeast GPS) (PSI 1-4); higher = more stable; sorted into four equal gates, so the index is relative within each strain
Conditions: doa10∆
In short: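 Peptides tiling yeast proteins in 17-residue segments were fused downstream of GFP, with Cherry expressed from the same plasmid. As a pooled library in yeast, mid-log cultures grown in leucine-free medium were sorted into four equal gates by GFP/Cherry fluorescence ratio. Gate plasmids were PCR-amplified and Illumina-sequenced, and barcodes linked reads to strains. Each peptide received a protein stability index equal to the sum of each gate's read frequency times its gate number.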
TNKISPKDFSPNFTGID [SSN2] gave a protein stability index of 2.76 ± 0.13.
Work on TNNKKLLEKANNQQRLL [SMC3] yielded a protein stability index of 2.01 ± 0.11.

Same assay, conditions: pdr5∆
Work on SVPLRKGDRALLVKLSK [BRR2] yielded a protein stability index of 3.33 ± 0.18.
SVQLPDMAKLKKMMNTS [SWI3] showed a protein stability index of 1.82 ± 0.092.
SVSMLLQYYILEYMNTA [RRI2] gave a protein stability index of 2.34 ± 0.089.
With SVVHPGEMVGVLAAQSI [RPO21] the protein stability index was 1.81 ± 0.089.
Sequence SVVLTLQAFGESESTTN [RPB3] has a protein stability index of 2.51 ± 0.088.
For SVWKPIAAIIGRLNTLV [IRR1], the protein stability index was 1.56 ± 0.026.
SVYYHKGNFRTKPFENV [SNU114] showed a protein stability index of 3.35 ± 0.091.
For SWASEGISKKTRIAGVV [RPS8A], the protein stability index was 2.28 ± 0.034.
For SYALSMEKDKLKNLLRS [SNU114], the protein stability index was 2.24 ± 0.1.
Sequence SYANLPGTITHGMFSSA [FAS1] has a protein stability index of 2.15 ± 0.051.
With SYDRTLLIADSRRPEPK [RPS16A] the protein stability index was 2.48 ± 0.068.
Work on SYELRNTTTYKSRPDRP [SNF5] yielded a protein stability index of 3.3 ± 0.071.
Work on SYFKNSVIVKFHSEPDR [LIN1] yielded a protein stability index of 2.59 ± 0.075.
SYRLLPQINILQPIKGE [RPC40] showed a protein stability index of 2.1 ± 0.087.
SYTFRSEKGLLSATQFT [FAS1] showed a protein stability index of 2.65 ± 0.046.
Sequence SYYSREQDALFITRLAQ [RPN1] has a protein stability index of 1.85 ± 0.045.
For TAETGYIQRRLVKALED [RPO21], the protein stability index was 2.74 ± 0.074.
TAFATEFFVQVLTHESL [DLS1] showed a protein stability index of 2.71 ± 0.11.
TALALKYLIKYNVFRQH [CSI1] showed a protein stability index of 1.8 ± 0.049.
TANANKPAFSFGATTND [YJL041W/NSP1] showed a protein stability index of 2.74 ± 0.051.
TARRNVSGDAAALFRLH [SWI3] showed a protein stability index of 2.98 ± 0.099.
Work on TCPGLSLTDVAFFTYDA [ECM29] yielded a protein stability index of 3.05 ± 0.091.
TDEHLIFNSGKMIILDK [ISW2] gave a protein stability index of 2.74 ± 0.074.
TDGADENVQIGEDFMEV [SRB4] gave a protein stability index of 3.35 ± 0.17.
For TDKVSLSQPVSASKHEY [SIR4], the protein stability index was 2.53 ± 0.057.
TDLKKIIKANQLILSDV [RET1] showed a protein stability index of 2.34 ± 0.053.
In the case of TEDRYNEYVAKVSAREK [FAS2], the protein stability index is reported as 3.14 ± 0.074.
Sequence TEENKANTNSVTSMEAA [YIL149C/MLP2] has a protein stability index of 3.5 ± 0.089.
With TEKKFTKEQYAAESKKY [RPL5] the protein stability index was 3.07 ± 0.14.
In the case of TETALMNLKKELQGYIE [SRB5], the protein stability index is reported as 3.07 ± 0.089.
TEYCVGDYVAYQLNGVA [YMR129W/POM152] gave a protein stability index of 3.1 ± 0.13.
In the case of TEYGRKYNVNISALTQT [PRP8], the protein stability index is reported as 2.53 ± 0.093.
TFAQEKLNTFENDLLQE [SMC3] showed a protein stability index of 3.26 ± 0.12.
With TFAVILFLIIQCYKIYD [YMR129W/POM152] the protein stability index was 1.22 ± 0.046.
Sequence TFEIPQAHEIVIPSYSK [SWI3] has a protein stability index of 2.37 ± 0.07.
Work on TFENTNNTEKNDVTNKN [SIR4] yielded a protein stability index of 2.89 ± 0.068.
Work on TFFPRCIIAVSCTLLER [POP1] yielded a protein stability index of 1.36 ± 0.032.
In the case of TFGIRRNEKIAVHVTVR [RPL11A], the protein stability index is reported as 1.68 ± 0.076.
Work on TFHDYDMVKLDINPPLV [RRP42] yielded a protein stability index of 2.73 ± 0.061.
For TFQRVCQYMVACVPLLP [RPN1], the protein stability index was 2.42 ± 0.071.
Work on TFSVYHESTSRTDQYTI [YMR129W/POM152] yielded a protein stability index of 2.64 ± 0.077.
In the case of TGANSIYSVEKKISRLP [UBP6], the protein stability index is reported as 3.52 ± 0.11.
With TGITKKDEDEEADEDMK [PRE9] the protein stability index was 3.3 ± 0.074.
TGVMIGIDLAYNMYDAY [PRP8] showed a protein stability index of 2.69 ± 0.053.
THSKLFADKKRDCIDIS [PRP8] showed a protein stability index of 3.2 ± 0.077.
Work on TIEHAADITDGNNTELT [YCG1] yielded a protein stability index of 3.46 ± 0.082.
TIEVLDEVITEGQADID [POP7] showed a protein stability index of 3.1 ± 0.061.
For TIFGGVDKNGAHLYMLE [PRE10], the protein stability index was 2.66 ± 0.071.
TIFNLPKNKLVPTLEAK [FAS1] showed a protein stability index of 2.34 ± 0.081.
TIFSPEGRLYQVEYALE [PRE9] gave a protein stability index of 3.32 ± 0.088.
For TIGGGLFGNKPTTTTGG [YGR119C/NUP57], the protein stability index was 3.25 ± 0.21.
With TIGPYRARKDRMRVSVL [SSN3] the protein stability index was 2.99 ± 0.085.
With TIITDCAFLLTKIKDAE [YJL039C/NUP192] the protein stability index was 2.78 ± 0.077.
Work on TIKVAGTPLLEVRGQVP [SNU114] yielded a protein stability index of 2.69 ± 0.067.
Work on TIKVVKRSMDAEQLGHA [RPP1] yielded a protein stability index of 3.28 ± 0.07.
In the case of TILQHLSEAWRCWKANI [PRP8], the protein stability index is reported as 3.36 ± 0.083.
Sequence TILYLNVFHGLCAGANN [IRR1] has a protein stability index of 1.64 ± 0.083.
With TIPLGGSVHKLPYAIAG [PRE3] the protein stability index was 2.91 ± 0.085.
In the case of TIRVVTENKIFVEVERA [RPN5], the protein stability index is reported as 1.94 ± 0.14.
TIRYPDPNIKVNDTVKI [RPS4A] showed a protein stability index of 2.87 ± 0.097.
With TKDKAKKIREIYRYDEM [BRR2] the protein stability index was 2.71 ± 0.1.
Sequence TKEVESNIITKSLVQYI [DIS3] has a protein stability index of 3.05 ± 0.11.
Sequence TKGMITNLQRNVDRLYK [NUT2] has a protein stability index of 3.35 ± 0.18.
With TKIAQSQTMAETYVASY [ECM29] the protein stability index was 2.48 ± 0.036.
In the case of TKKTITPMGGFVHYGEI [RPL3], the protein stability index is reported as 3.1 ± 0.072.
TKLIQYEHNGRTLEAIT [CSL4] gave a protein stability index of 2.48 ± 0.044.
Sequence TKNIPITHRDLHYDKDY [SSN8] has a protein stability index of 2.87 ± 0.041.
TKPNVLNDPSLKIQFIL [SIN4] showed a protein stability index of 2.36 ± 0.055.
Sequence TKRESLNARMFLKYYGA [SIR2] has a protein stability index of 2.9 ± 0.098.
In the case of TKSNRRVSHSDTNSSKP [SIR4], the protein stability index is reported as 3.19 ± 0.085.
In the case of TKTNVDNNSKAEASFTF [YLR335W/NUP2], the protein stability index is reported as 3.24 ± 0.067.
TKTPGPGGQAALRALAR [RPS14A] gave a protein stability index of 2.27 ± 0.031.
TKTRKHRGHVSAGKGRI [RPL28] gave a protein stability index of 2.21 ± 0.062.
TKTTGKCGSVTVRLIPA [RPS2] gave a protein stability index of 1.7 ± 0.082.
For TKVLQFAAKQRQELQMQ [SNF2], the protein stability index was 2.71 ± 0.076.
Work on TKYSAKYAQDGAGIERE [RPL3] yielded a protein stability index of 3.48 ± 0.22.
For TLAERQQLAYDLSISAL [RPN9], the protein stability index was 2.47 ± 0.13.
For TLAITTVTNSKFRSSIL [RPN2], the protein stability index was 2.3 ± 0.047.
In the case of TLAYDRGHRIRREFKQY [PRP8], the protein stability index is reported as 2.63 ± 0.058.
With TLDYAERHGYIRGIVKQ [RPL2A] the protein stability index was 1.71 ± 0.083.
TLEAKIGGLLSKVREEV [RPO31] showed a protein stability index of 3.33 ± 0.11.
For TLFSSIEPQVINYLALN [ECM29], the protein stability index was 2.64 ± 0.096.
With TLGKLSTSVGWKYEDVV [RPL16B] the protein stability index was 2.42 ± 0.069.
TLHLVLRLRGGIIEPSL [RPL40A] gave a protein stability index of 2.81 ± 0.049.
With TLKKEWLKEYEDETLRR [YIL149C/MLP2] the protein stability index was 3.2 ± 0.18.
TLKLQDTRITPSKVSKI [PRE6] showed a protein stability index of 2.85 ± 0.052.
For TLKPTFSFTEPAQKDSS [YOR098C/NUP1], the protein stability index was 3.05 ± 0.067.
TLLKKANRDDVKGRENE [RPC82] showed a protein stability index of 3.5 ± 0.23.
Work on TLLREVVFTRLVQRCWQ [CSN12] yielded a protein stability index of 1.24 ± 0.048.
TLLYEQIIQRDKINKYS [SNF5] gave a protein stability index of 3.35 ± 0.089.
TLNPKTGHLFLKIIHTS [PRP8] showed a protein stability index of 1.91 ± 0.048.
Sequence TLNSRALSGLYYKNFHN [SNM1] has a protein stability index of 2.38 ± 0.06.
In the case of TLPGDDELDQEILNLST [RPT5], the protein stability index is reported as 3.27 ± 0.12.
With TLPQPRLNKLNSNGIAM [SMD1] the protein stability index was 2.27 ± 0.069.
For TLQLYMVHREFLKLANG [RGR1], the protein stability index was 1.63 ± 0.05.
With TLQTISFLGYLRYVKQI [ISW2] the protein stability index was 1.71 ± 0.049.
Sequence TLRPRQYATVSKTHKTV [RPL34A] has a protein stability index of 2.12 ± 0.093.
In the case of TLSYDDISAAIVHSSDG [DLS1], the protein stability index is reported as 2.82 ± 0.053.
With TMETKTLPEKKQFDSIF [SIR4] the protein stability index was 2.69 ± 0.057.
For TMGEETAKKDMSSTTPK [SNF12], the protein stability index was 3.03 ± 0.076.
In the case of TMHTKTYAAEIAHNISA [RPL32], the protein stability index is reported as 2.42 ± 0.04.
In the case of TMLENITLRGVENIERV [RPO21], the protein stability index is reported as 2.86 ± 0.1.
